Experimental data taken from the supplement of paper PMC9732359.
± gives the uncertainty stated by the source.

Assay: protein stability index of a GFP-peptide fusion (yeast GPS) (PSI 1-4); higher = more stable; sorted into four equal gates, so the index is relative within each strain
Outline: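 Yeast carrying a pooled library were grown to mid-log phase in leucine-free medium. Each library plasmid expresses Cherry and has a tiled 17-residue yeast protein peptide fused downstream of GFP. Cells were sorted into four equal gates by GFP/Cherry ratio, and plasmids from each gate were PCR-amplified, Illumina-sequenced and assigned to strains by barcode. Summing, across gates, the read frequency times the gate number gave each peptide's protein stability index.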

Sequence | protein stability index (ubr1∆) | protein stability index (doa10∆) | protein stability index (pdr5∆) | protein stability index (san1∆)
GVKNNLLTPKSGEPIIA [RPO31] | 2.62 ± 0.22 | – | – | –
PKDYIKKLLEVHDIFSK [CDC53] | 1.66 ± 0.04 | 1.46 ± 0.042 | 2.04 ± 0.06 | 1.75 ± 0.099
FHKYRLKRNSWPKTRGV [RPL2A] | 2.31 ± 0.091 | 2.44 ± 0.099 | 2.71 ± 0.1 | 2.83 ± 0.12
TSGTNIAGTFNVGKPDQ [YOR098C/NUP1] | 3.21 ± 0.1 | 3.22 ± 0.088 | 3.01 ± 0.11 | 3.27 ± 0.079
VGASVVVVKNWGAETDE [RPS12] | 2.97 ± 0.067 | 3.34 ± 0.12 | 3.12 ± 0.089 | 3.29 ± 0.047
YNHNDGGDGRDYKGAKL [RRI1] | 2.96 ± 0.092 | 2.57 ± 0.13 | 3.2 ± 0.088 | 3.14 ± 0.078
TKLNLHCVIEDDESEQI [RRI1] | 2.65 ± 0.15 | 2.2 ± 0.29 | 3.16 ± 0.17 | 2.69 ± 0.12
VKHSPGAIKPFTPKLIY [ECM29] | 2.93 ± 0.1 | 3.16 ± 0.089 | – | 2.87 ± 0.19
SIVHINSQERVQDLGSA [SIR2] | 2.59 ± 0.048 | 2.65 ± 0.069 | 3.14 ± 0.064 | 2.99 ± 0.067
DDDDNNESSSNTTVISD [DIS3] | 2.91 ± 0.05 | 3.01 ± 0.077 | 3.24 ± 0.081 | 2.97 ± 0.049
LFQNVPEQGEEPMKQLN [YAR002W/NUP60] | 3.17 ± 0.12 | 3.62 ± 0.15 | 3.32 ± 0.16 | 3.51 ± 0.12
TPLTENILIASLMDTLI [YCG1] | 2.35 ± 0.035 | 1.86 ± 0.049 | 1.7 ± 0.04 | 2.07 ± 0.069
NELTDAIALAVRLGEED [RPN1] | 2.7 ± 0.095 | 2.98 ± 0.096 | 3.27 ± 0.096 | –
NTHNKSTKRVTKHPSLK [POP7] | 2.72 ± 0.046 | 2.6 ± 0.07 | 2.78 ± 0.062 | 2.67 ± 0.044
LEILIVTKDGVRKEFYE [PRE7] | 2.92 ± 0.049 | 2.91 ± 0.063 | 2.54 ± 0.049 | 3.14 ± 0.043
NALWILVDLVSHFSPDI [ITC1] | 1.95 ± 0.051 | 1.55 ± 0.07 | 1.56 ± 0.079 | 1.67 ± 0.11
AQGTKFRISLGLPVGAI [RPL23A] | 1.92 ± 0.11 | 1.94 ± 0.1 | 1.84 ± 0.063 | 1.42 ± 0.17
YKRQKSSLLYTYDENDD [ESC2] | 1.21 ± 0.06 | 1.25 ± 0.059 | 1.42 ± 0.07 | 1.17 ± 0.11
TAVNGIDTDLFGAPNNP [YGL172W/NUP49] | 3.19 ± 0.053 | 3.1 ± 0.083 | 3.23 ± 0.08 | 3.25 ± 0.058
IQWYKSLLEKDIDAVNG [ISW2] | 2.82 ± 0.055 | 2.73 ± 0.085 | 3.02 ± 0.075 | 2.81 ± 0.2
IHKRYIDLEAPVQIVKR [RPS20] | 2.96 ± 0.12 | 2.5 ± 0.13 | 2.78 ± 0.15 | 2.51 ± 0.14
YQLNGVAPFMIKYEFNG [YMR129W/POM152] | 2.73 ± 0.057 | 2.63 ± 0.097 | 2.64 ± 0.075 | 2.62 ± 0.082
KFANQLHDEYLVSMRYP [RPN3] | 2.76 ± 0.074 | 2.35 ± 0.098 | 2.9 ± 0.07 | 2.43 ± 0.081
VSMITDHNALPQRCTFA [POP1] | 2.73 ± 0.13 | 2.97 ± 0.18 | 3.01 ± 0.11 | 2.3 ± 0.18
INSGTFVKVTKATLELL [RPL7A] | 2.9 ± 0.12 | 3.01 ± 0.1 | 2.92 ± 0.092 | 2.65 ± 0.12

Sequence | protein stability index (ubr1∆) | protein stability index (doa10∆) | protein stability index (pdr5∆) | protein stability index (san1∆)
QLWLNSSGDFDDNNNNN [GRR1] | 3.06 ± 0.055 | 3.19 ± 0.076 | 3.16 ± 0.07 | 3.17 ± 0.1
LNSLTNLLSKRNQEKKM [SNM1] | 2.7 ± 0.063 | 2.89 ± 0.078 | 2.86 ± 0.074 | 2.69 ± 0.083
KFNKSKAKFTSLAVRSL [YCS4] | 1.8 ± 0.039 | 2.09 ± 0.065 | 2.01 ± 0.056 | 1.96 ± 0.067
YEKAQKDLENAQVEMKS [SMC1] | 3.3 ± 0.08 | 3.11 ± 0.11 | 3.29 ± 0.084 | 3.31 ± 0.052
GKLGQIDYALTAVKQGV [PRE8] | 2.54 ± 0.099 | 1.36 ± 0.21 | 1.93 ± 0.13 | –
PEDALVNDFSDITSDQL [SMC3] | 3.31 ± 0.062 | 3.32 ± 0.076 | 2.85 ± 0.091 | 3.15 ± 0.081
GTLDKNSQTVSGTPITQ [SNF2] | 2.65 ± 0.044 | 2.83 ± 0.055 | 2.71 ± 0.055 | 2.69 ± 0.052
ATSKTSEMLAKYSDILL [CDC53] | 3.07 ± 0.048 | 3.11 ± 0.091 | 3.18 ± 0.099 | 2.99 ± 0.1
NLPPHYALFLKALRRKI [SSN2] | 1.7 ± 0.087 | 2.15 ± 0.11 | 1.79 ± 0.095 | 2.8 ± 0.22
VQLRYGDYDSHDISRYV [PRP8] | 2.09 ± 0.044 | 2.41 ± 0.062 | 2.46 ± 0.064 | 2.69 ± 0.075
ENFLKEVFQLRIFVKEI [GAL11] | 1.52 ± 0.057 | 1.81 ± 0.073 | 1.69 ± 0.058 | 1.95 ± 0.063
SKRSKIDIINKLILHAI [YML103C/NUP188] | 1.1 ± 0.079 | 1.23 ± 0.13 | 1.23 ± 0.11 | 1.04 ± 0.13
VCMHCGKLLLDEHNELM [RPO21] | 3.14 ± 0.084 | – | 2.94 ± 0.18 | 2.77 ± 0.28
TGMSSMSPFLRKVVKPS [SRB4] | 2.48 ± 0.049 | 2.76 ± 0.075 | 2.76 ± 0.088 | 1.97 ± 0.12
TRMQRGHRADVGGQFSK [REC8] | 3.39 ± 0.12 | 2.98 ± 0.13 | 3.32 ± 0.13 | 3.27 ± 0.074
LEDLKNTKEIAVDLEHH [RRP6] | 2.7 ± 0.038 | 2.66 ± 0.061 | 2.54 ± 0.047 | 2.48 ± 0.056
FICTTFRTDMLQVADKF [SMC3] | 1.67 ± 0.075 | 1.38 ± 0.086 | 2.31 ± 0.12 | 1.6 ± 0.089
IVDDKQEMIDILETIFR [DIB1] | 2.75 ± 0.18 | 2.98 ± 0.1 | 3.17 ± 0.13 | 3.02 ± 0.22
RCWKANIPWDVPGMPAP [PRP8] | 2.73 ± 0.18 | 2.15 ± 0.081 | 1.5 ± 0.077 | 1.28 ± 0.12
STVSGELNDNPAWFNNP [YMR153W/NUP53] | 3.35 ± 0.049 | 3.36 ± 0.086 | 3.47 ± 0.056 | 3.29 ± 0.044
TASDQLFGMCESLYEPN [PUP3] | 1.83 ± 0.039 | 2.06 ± 0.059 | 2.12 ± 0.058 | 2.71 ± 0.084
NSINNNNIKNGTNNISQ [YDL088C/ASM4] | 2.98 ± 0.035 | 2.79 ± 0.044 | 2.75 ± 0.046 | 2.74 ± 0.046
RCMMAAQYFYSGAYSYP [DIS3] | 2.12 ± 0.11 | 2.14 ± 0.12 | 2.31 ± 0.11 | 1.81 ± 0.2
PSRIFYKALRGMVSHKT [RPL16A] | 1.82 ± 0.13 | 2.32 ± 0.1 | 1.27 ± 0.075 | 2.44 ± 0.14
